# Source: the supplement of paper PMC9732359
# ± gives the uncertainty stated by the source.
# Experiment: protein stability index of a GFP-peptide fusion (yeast GPS) (PSI 1-4); higher = more stable; sorted into four equal gates, so the index is relative within each strain
# Procedure, shortened: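 Peptides tiling yeast proteins in 17-residue segments were fused downstream of GFP, with Cherry expressed from the same plasmid. As a pooled library in yeast, mid-log cultures grown in leucine-free medium were sorted into four equal gates by GFP/Cherry fluorescence ratio. Gate plasmids were PCR-amplified and Illumina-sequenced, and barcodes linked reads to strains. Each peptide received a protein stability index equal to the sum of each gate's read frequency times its gate number.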
Sequence,protein stability index (doa10∆),protein stability index (pdr5∆),protein stability index (san1∆),protein stability index (ubr1∆)
SKEETVDFIKHSLSQAI [PRE3],2.56 ± 0.065,2.65 ± 0.063,2.66 ± 0.056,2.7 ± 0.053
GQCRTELEGSFNKSAEL [YCS4],3.04 ± 0.09,2.51 ± 0.095,2.6 ± 0.1,2.9 ± 0.081
GKEFGDVSVKMGNTKVH [RRP45],1.38 ± 0.073,1.53 ± 0.083,2.25 ± 0.069,1.95 ± 0.1
RQEVTKFAKANIGYVMG [RPN4],1.2 ± 0.15,1.31 ± 0.11,1.21 ± 0.18,1.14 ± 0.065
PRLEKLINEILLKSNDP [RGR1],1.68 ± 0.059,2.01 ± 0.045,1.75 ± 0.079,1.86 ± 0.039
SYHLWPSFTDEQWITIE [PRP8],2.44 ± 0.089,2.66 ± 0.061,2.82 ± 0.09,2.57 ± 0.057
LQQGMRGAWGKPHGLAA [RPL10],2.47 ± 0.1,2.57 ± 0.097,2.24 ± 0.23,2.52 ± 0.069
ALILADSEIEISSEKLL [RPP1A],1.95 ± 0.13,1.87 ± 0.11,1.94 ± 0.096,2.06 ± 0.081
STFREWKNLVLKLSQAF [YJR042W/NUP85],2.85 ± 0.079,2.37 ± 0.096,2.64 ± 0.068,2.74 ± 0.076
LNTKSIQIDEETENSES [MCD1],2.16 ± 0.096,2.52 ± 0.11,2.87 ± 0.1,2.92 ± 0.1
RYQIMLPEQLKSGKFCS [SNM1],2.74 ± 0.071,2.08 ± 0.09,2.7 ± 0.07,2.12 ± 0.061
STSYAIKKKDELERVAK [RPS5],3.44 ± 0.084,3.52 ± 0.11,3.33 ± 0.061,3.35 ± 0.081
NSCFSDGSQQNLQQDKT [REC8],2.77 ± 0.09,2.76 ± 0.13,2.18 ± 0.2,2.88 ± 0.059
GMPHKFYQGKTGVVYNV [RPL21A],2.84 ± 0.088,2.86 ± 0.077,2.53 ± 0.078,2.61 ± 0.067
RTVAGFSNVELPQCIIP [ARP7],2.8 ± 0.05,2.76 ± 0.054,2.56 ± 0.051,2.7 ± 0.034
DSTAVALEEGLNEEAVI [YJL039C/NUP192],3.08 ± 0.084,3.12 ± 0.04,2.68 ± 0.058,2.98 ± 0.05
IVKFKQKEEGRSFTKAI [YLR335W/NUP2],3.13 ± 0.069,3.09 ± 0.066,3.24 ± 0.05,3.29 ± 0.047
QPQHPHYVSTSKISQMA [YLR018C/POM34],1.71 ± 0.037,2.17 ± 0.04,2.34 ± 0.048,2.19 ± 0.026
TIKILPENTAMFNPLHE [YMR129W/POM152],2.42 ± 0.064,2.36 ± 0.053,2.36 ± 0.058,2.5 ± 0.05
SKYLIKQIDIPNFNVEI [ECM29],1.57 ± 0.069,2.01 ± 0.091,2.57 ± 0.072,2.39 ± 0.059
YHLTKAVKLGDLKKFTS [RPN3],1.77 ± 0.065,1.8 ± 0.062,1.54 ± 0.11,1.78 ± 0.052
EGEYELTEAVEDGPRPF [RPL5],–,3.31 ± 0.17,3.38 ± 0.066,–
VEECPQYIRTLVSEART [SSN8],1.67 ± 0.1,1.7 ± 0.1,1.6 ± 0.14,1.87 ± 0.061
LPLRLQFNEFIQIMANI [PGD1],1.52 ± 0.078,1.51 ± 0.088,1.28 ± 0.14,1.17 ± 0.084
GEITKTENEKFISYHDK [NUT1],3.31 ± 0.097,3.35 ± 0.077,3.39 ± 0.057,3.17 ± 0.079
LIGCIPYSKNAVEQLAG [YDL088C/ASM4],3.08 ± 0.2,3.01 ± 0.14,2.94 ± 0.088,2.92 ± 0.27

Sequence,protein stability index (doa10∆),protein stability index (pdr5∆),protein stability index (san1∆),protein stability index (ubr1∆)
ICNTLNIAKDLKWKKGI [SMC1],1.43 ± 0.1,1.26 ± 0.14,1.45 ± 0.17,2.69 ± 0.24
KSSVPGSAELRNSYPAS [RPN3],2.66 ± 0.089,3.33 ± 0.076,2.73 ± 0.078,3.25 ± 0.095
RADVEDESNDIDMIADE [RPC37],2.95 ± 0.073,2.72 ± 0.057,2.8 ± 0.08,3.27 ± 0.066
VGMRYFHKQQAHFWKPV [RPL28],–,3.02 ± 0.11,–,2.83 ± 0.09
VKLGLNSKMPTRFPPAV [PRP8],2.78 ± 0.057,3.06 ± 0.076,2.85 ± 0.051,2.73 ± 0.06
EEPSRVDPEQEAHNKAL [RPT4],3.4 ± 0.16,3.31 ± 0.1,3.46 ± 0.063,3.23 ± 0.11
SSHQRVFKLSTNLISKI [SWP82],2.08 ± 0.073,1.97 ± 0.057,1.52 ± 0.11,1.93 ± 0.048
GTFTADYSKPNLPPHYA [SSN2],2.23 ± 0.055,2.28 ± 0.049,2.16 ± 0.068,2.15 ± 0.039
LAGKVGSIRVHKSGKLS [RPC53],1.45 ± 0.058,1.59 ± 0.072,–,1.28 ± 0.06
RIHTNDNDIMNLGSRTK [SSN3],3.08 ± 0.048,2.97 ± 0.043,2.95 ± 0.035,3.03 ± 0.037
QDRDRFFLRDTLLWNKN [SNF5],2.99 ± 0.056,3.08 ± 0.052,2.83 ± 0.046,3 ± 0.039
ADVKGVCTEAGMYALRE [RPT6],1.82 ± 0.08,2.23 ± 0.094,1.97 ± 0.12,1.27 ± 0.27
SVKFTHIAHTLPEKVNF [SSN2],2.17 ± 0.05,2.28 ± 0.042,2.2 ± 0.066,1.92 ± 0.029
KELFGEDEDEDLFGDSN [SSN2],3.32 ± 0.2,3.54 ± 0.2,3.21 ± 0.27,3.67 ± 0.2
TRMQRGHRADVGGQFSK [REC8],2.98 ± 0.13,3.32 ± 0.13,3.27 ± 0.074,3.39 ± 0.12
SYANHLEESDVEDTLHV [YOR098C/NUP1],2.98 ± 0.082,2.4 ± 0.065,2.13 ± 0.081,1.97 ± 0.051
RCTKIIKGNGESDETTT [RPT1],3.18 ± 0.14,–,3.36 ± 0.038,3.54 ± 0.11
IERIGHLLSINYGEKEE [PCI8],1.32 ± 0.06,1.33 ± 0.055,1.2 ± 0.092,1.18 ± 0.049
HGTSTSAEDEENIIQRL [CDC53],3.13 ± 0.064,3.34 ± 0.059,3.13 ± 0.044,3.06 ± 0.057
SEEVDDLSMVPKMKDEE [SNF2],2.78 ± 0.17,–,3.29 ± 0.12,3.59 ± 0.22
SLFHTAVSVANGFMHAG [RPN2],1.18 ± 0.087,1.51 ± 0.077,1.29 ± 0.25,1.57 ± 0.13
IMWQLLDGVSYLHQNWV [SSN3],1.61 ± 0.074,1.59 ± 0.08,1.23 ± 0.12,1.75 ± 0.076
AADNLGSYGSLLRFNGV [PRE4],3.03 ± 0.088,3.15 ± 0.078,3.25 ± 0.12,3.04 ± 0.21
SQSLGVSNKFEKIFHYG [PUP3],3.47 ± 0.13,3.5 ± 0.17,2.95 ± 0.13,3.61 ± 0.14
SATPNAAAFSQQQNASS [GAL11],2.94 ± 0.063,3.1 ± 0.054,2.89 ± 0.035,3.09 ± 0.041
NTKVPVDIVNQWFLQYQ [YML103C/NUP188],1.78 ± 0.044,2.15 ± 0.038,1.85 ± 0.058,2.18 ± 0.034
